# Measured values as given in patent US20220281962A1.
# Tests used:
# [1] = target: recombinant human tetranectin (TN), residue 22-202 with a C-terminal histidine tag (human) (UniProt P05452); test: OpenSPR; TN chip, HMGB1 200 nM, without mAb8 pre-treatment
# [2] = target: recombinant human tetranectin (TN), residue 22-202 with a C-terminal histidine tag (human) (UniProt P05452); test: OpenSPR; TN chip pre-treated with mAb8 (29.6 nM), HMGB1 200 nM
# [3] = target: recombinant human tetranectin (TN), residue 22-202 with a C-terminal histidine tag (human) (UniProt P05452); test: OpenSPR; TN chip with against without mAb8 (29.6 nM) pre-treatment
# [4] = target: recombinant human tetranectin (TN), residue 22-202 with a C-terminal histidine tag (human) (UniProt P05452); test: OpenSPR; TN on the chip, HMGB1 applied (FIG. 5A, Lower Panel, per paragraph 223)
# [5] = target: recombinant human tetranectin (TN), residue 22-202 with a C-terminal histidine tag (human) (UniProt P05452); test: OpenSPR; TN chip pre-treated with mAb8 (29.6 nM), HMGB1 at various concentrations
# [6] = target: recombinant human tetranectin (TN), residue 22-202 with a C-terminal histidine tag (human) (UniProt P05452); test: OpenSPR; TN immobilized on the chip, HMGB1 applied at 400, 200, 100 and 25 (no unit on the sheet) [A) lower panel]
# [7] = target: recombinant CBP-HMGB1 (rat HMGB1 with a calmodulin-binding peptide tag) (rat) (UniProt P63159); test: OpenSPR; HMGB1 immobilized on the chip, TN applied at 280, 93, 31 and 10 (no unit on the sheet) [A) upper panel]
# [8] = target: recombinant CBP-HMGB1 (rat HMGB1 with a calmodulin-binding peptide tag) (rat) (UniProt P63159); test: OpenSPR; TN or HMGB1 on the chip (His-tag or carboxyl groups); this end taken as HMGB1 on chip, TN applied (inferred, since 2.88 nM is tied to the TN chip at paragraph 223)
# recombinant CBP-HMGB1 (rat HMGB1 with a calmodulin-binding peptide tag) (rat), sequence (P63159 whole entry, form in doubt): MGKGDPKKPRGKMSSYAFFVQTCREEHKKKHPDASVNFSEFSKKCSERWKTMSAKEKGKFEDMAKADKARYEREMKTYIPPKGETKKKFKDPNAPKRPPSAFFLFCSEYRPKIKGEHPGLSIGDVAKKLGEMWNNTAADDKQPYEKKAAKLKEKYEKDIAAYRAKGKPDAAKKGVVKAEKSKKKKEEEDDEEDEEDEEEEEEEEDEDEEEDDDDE
SPR response signal [1] [AU],SPR response signal [2] [AU],fold increase of KD [3] [fold],Kd [4] [nM],Kd [5] [nM],Kd [6] [nM],Kd [7] [nM],Kd [8] [nM],Substance
150,35,6,1.21 to 2.88,18.5,2.88,–,–,recombinant CBP-HMGB1 (rat HMGB1 with a calmodulin-binding peptide tag) (from UniProt P63159 1-215)
–,–,–,–,–,–,1.21,1.21 to 2.88,"recombinant human tetranectin (TN), residue 22-202 with a C-terminal histidine tag (from UniProt P05452 22-202)"
